This is an account of results in paper PMC10160006 (Nature chemical biology, 2023).

B1: human EXT2 (residues 46-718), fusion tags removed by TEV protease (enzyme, UniProt Q93063 46-718, looked up)
chain: WPHSIESSNDWNVEKRSIRDVPVVRLPADSPIPERGDLSCRMHTCFDVYRCGFNPKNKIKVYIYALKKYVDDFGVSVSNTISREYNELLMAISDSDYYTDDINRACLFVPSIDVLNQNTLRIKETAQAMAQLSRWDRGTNHLLFNMLPGGPPDYNTALDVPRDRALLAGGGFSTWTYRQGYDVSIPVYSPLSAEVDLPEKGPGPRQYFLLSSQVGLHPEYREDLEALQVKHGESVLVLDKCTNLSEGVLSVRKRCHKHQVFDYPQVLQEATFCVVLRGARLGQAVLSDVLQAGCVPVVIADSYILPFSEVLDWKRASVVVPEEKMSDVYSILQSIPQRQIEEMQRQARWFWEAYFQSIKAIALATLQIINDRIYPYAAISYEEWNDPPAVKWGSVSNPLFLPLIPPQSQGFTAIVLTYDRVESLFRVITEVSKVPSLSKLLVVWNNQNKNPPEDSLWPKIRVPLKVVRTAENKLSNRFFPYDEIETEAVLAIDDDIIMLTSDELQFGYEVWREFPDRLVGYPGRLHLWDHEMNKWKYESEWTNEVSMVLTGAAFYHKYFNYLYTYKMPGDIKNWVDAHMNCEDIAMNFLVANVTGKAVIKVTPRKKFKCPECTAIDGLSLDQTHMVERSECINKFASVFGTMPLKVVEHRADPVLYKDDFPEKLKSFPNIGSL
modifications: N-glycan on Asn637
B3: human EXT1 (residues 28-746), fusion tags removed by TEV protease (enzyme, UniProt Q16394 28-746, looked up)
chain: FRASRSHSRREEHSGRNGLHHPSPDHFWPRFPDALRPFVPWDQLENEDSSVHISPRQKRDANSSIYKGKKCRMESCFDFTLCKKNGFKVYVYPQQKGEKIAESYQNILAAIEGSRFYTSDPSQACLFVLSLDTLDRDQLSPQYVHNLRSKVQSLHLWNNGRNHLIFNLYSGTWPDYTEDVGFDIGQAMLAKASISTENFRPNFDVSIPLFSKDHPRTGGERGFLKFNTIPPLRKYMLVFKGKRYLTGIGSDTRNALYHVHNGEDVVLLTTCKHGKDWQKHKDSRCDRDNTEYEKYDYREMLHNATFCLVPRGRRLGSFRFLEALQAACVPVMLSNGWELPFSEVINWNQAAVIGDERLLLQIPSTIRSIHQDKILALRQQTQFLWEAYFSSVEKIVLTTLEIIQDRIFKHISRNSLIWNKHPGGLFVLPQYSSYLGDFPYYYANLGLKPPSKFTAVIHAVTPLVSQSQPVLKLLVAAAKSQYCAQIIVLWNCDKPLPAKHRWPATAVPVVVIEGESKVMSSRFLPYDNIITDAVLSLDEDTVLSTTEVDFAFTVWQSFPERIVGYPARSHFWDNSKERWGYTSKWTNDYSMVLTGAAIYHKYYHYLYSHYLPASLKNMVDQLANCEDILMNFLVSAVTKLPPIKVTQKKQYKETMMGQTSRASRWADPDHFAQRQSCMNTFASWFGYMPLIHSQMRLDPVLFKDQVSILRKKYRDIERL
modifications: NAG at Asn330

Assay [1] has as its target B3. The experiment in a line: cryo-EM structure.
In assay [2] the target is T1, EXT1-pGEn1 (human EXT1 residues 28-746 with N-terminal His8 and StrepII tag) (human, UniProt Q16394 28-746).
T1 sequence (looked up): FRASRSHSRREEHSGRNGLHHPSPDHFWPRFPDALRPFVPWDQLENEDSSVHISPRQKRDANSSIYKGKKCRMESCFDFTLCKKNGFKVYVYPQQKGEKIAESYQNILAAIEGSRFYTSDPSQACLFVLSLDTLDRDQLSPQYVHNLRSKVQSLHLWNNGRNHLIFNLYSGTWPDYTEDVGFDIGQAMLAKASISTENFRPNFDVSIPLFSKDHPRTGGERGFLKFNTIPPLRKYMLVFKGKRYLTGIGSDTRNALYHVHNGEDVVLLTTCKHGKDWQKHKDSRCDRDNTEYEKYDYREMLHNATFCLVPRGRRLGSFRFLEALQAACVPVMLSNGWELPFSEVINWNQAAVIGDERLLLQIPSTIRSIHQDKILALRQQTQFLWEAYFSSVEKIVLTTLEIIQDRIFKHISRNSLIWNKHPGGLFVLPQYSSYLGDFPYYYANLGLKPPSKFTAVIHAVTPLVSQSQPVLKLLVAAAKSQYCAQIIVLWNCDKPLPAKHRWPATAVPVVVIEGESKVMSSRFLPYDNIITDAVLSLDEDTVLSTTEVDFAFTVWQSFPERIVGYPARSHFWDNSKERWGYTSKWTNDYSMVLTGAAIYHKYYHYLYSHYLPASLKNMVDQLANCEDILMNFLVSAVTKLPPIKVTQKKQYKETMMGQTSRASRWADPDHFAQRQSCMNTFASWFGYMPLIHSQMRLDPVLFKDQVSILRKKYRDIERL
Put plainly: SEC-MALS.

The target in assay [3] is B1. Put plainly: cryo-EM structure.

Consider B1, for which the binding result in assay [1] was “binds”.

B2: EXT2-pGEn2 (human EXT2 residues 46-718 with N-terminal His8, AviTag and GFP) (enzyme, UniProt Q93063 46-718, looked up)
chain: WPHSIESSNDWNVEKRSIRDVPVVRLPADSPIPERGDLSCRMHTCFDVYRCGFNPKNKIKVYIYALKKYVDDFGVSVSNTISREYNELLMAISDSDYYTDDINRACLFVPSIDVLNQNTLRIKETAQAMAQLSRWDRGTNHLLFNMLPGGPPDYNTALDVPRDRALLAGGGFSTWTYRQGYDVSIPVYSPLSAEVDLPEKGPGPRQYFLLSSQVGLHPEYREDLEALQVKHGESVLVLDKCTNLSEGVLSVRKRCHKHQVFDYPQVLQEATFCVVLRGARLGQAVLSDVLQAGCVPVVIADSYILPFSEVLDWKRASVVVPEEKMSDVYSILQSIPQRQIEEMQRQARWFWEAYFQSIKAIALATLQIINDRIYPYAAISYEEWNDPPAVKWGSVSNPLFLPLIPPQSQGFTAIVLTYDRVESLFRVITEVSKVPSLSKLLVVWNNQNKNPPEDSLWPKIRVPLKVVRTAENKLSNRFFPYDEIETEAVLAIDDDIIMLTSDELQFGYEVWREFPDRLVGYPGRLHLWDHEMNKWKYESEWTNEVSMVLTGAAFYHKYFNYLYTYKMPGDIKNWVDAHMNCEDIAMNFLVANVTGKAVIKVTPRKKFKCPECTAIDGLSLDQTHMVERSECINKFASVFGTMPLKVVEHRADPVLYKDDFPEKLKSFPNIGSL
For the molecule B2, the binding result in assay [2] is on record as “binds”.
As for B3, in assay [3], the “stoichiometry N” value is 1 EXT1:EXT2.
